Reference: the supplement of paper PMC9170038

Test system: K4 kissing-loop RNA reporter
Experiment: apparent KD of K4 kissing-loop reporter; higher = weaker reporter binding
Settings: Eterna round: R107
Protocol: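 RNA-MaP round R107: designed RNA switches with theophylline, tryptophan, arginine or FMN aptamers are transcribed on-chip within common flanks. They are titrated with a labelled K4 kissing-loop RNA reporter in RNA-MaP buffer (100 mM Tris pH 7.5, 80 mM KCl, 4 mM MgCl2), without ligand or with the indicated ligand. Median apparent KD per design.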

[1] = input ligand: theophylline 20 uM
[2] = input ligand: tryptophan 2.4 mM
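Note: bound reporter read as fluorescence of individual clusters on recovered sequencing chips by microscopy, with normalized cluster intensities fitted with a binding model.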

| Sequence | apparent KD of K4 kissing-loop reporter (input ligand: FMN 200 uM) [µM] | apparent KD of K4 kissing-loop reporter (input ligand: arginine 13.2 mM) [µM] | apparent KD of K4 kissing-loop reporter (input ligand: none) [µM] | apparent KD of K4 kissing-loop reporter [1] [µM] | apparent KD of K4 kissing-loop reporter [2] [µM] |
| --- | --- | --- | --- | --- | --- |
| UGAUUGCCAGUGAUGUUGGCAGUGACUGAAGGAGCGCGUGAAAACGCAGGUAGGUCGCAGUUGAGUGCCAAUUGAUCGAAAGAUC [KL-XArg-A5] | 0.286 | 0.275 | 0.244 | 0.328 | 0.249 |
| AUAGAGAAGUGGCACCCUCACUAAAACAGUCGAGGACCGGUACGGCCGCCACUCGCGCGCUUUAGUGAUGUUAAAGAUGUGAAAA | 0.223 | 0.209 | 0.223 | 0.508 | 0.215 |
| CUGACCAACAGCGAUACCAGCGUGGAGUGAUGUUCCCUGGUCCGGGCUGAUGUUCCCUUGCGCCCUUGGCAGCGCAGAAGCAGGA [Exclusion Theophylline B GF 12] | 0.296 | 0.263 | 0.351 | 0.303 | 0.281 |
| AUUAGGCGAAGUGAUGUUUCAUAUAAUGGCAAGGAUAUGUCCUUACACAGAAGGUGCUCUUAGUCAGGUUAUAUUAGGACUGCUA [theeternabot_exclusion_KL_FMN_A_42] | 0.446 | 0.434 | 0.46 | 0.474 | 0.34 |
| AGUGAUGUGGGAAGGAGCGCUACAAGACUUCAGUGAUGUUGAAGUGAUGAUUUAGUGUUGUAGCAGGUAGGUCGCCUAGAUGUUA [KL-XARG-B9] | 0.0609 | 0.027 | 0.0449 | 0.0362 | 0.0391 |
| AGUGAUGUAUGGCGGUUUGUCACUUAAAAUCAGGAUAUAUAAACAAAUAGAAGGGAUGGCGGAGUGAUGUUCCGCCGGCCGCCAU [FMN A Exl V1] | 0.171 | 0.145 | 0.177 | 0.179 | 0.162 |
| GCGAACAUUCGCAGUGAUGUUGCGACGGAAGGAGCGCGUGAAAACGCAGGUAGGUCGCCGACAAAAUUAAUUUUAAUGUGUUCGC [Arginine A K4 27] | 0.373 | 0.44 | 0.488 | 0.471 | 0.315 |
| CAUAGGAAACUAUGUUUCUCUCUUACUGAAGGAGCGCGUGAAAACGCAGGUAGGUCGCAGAAUUUAAAAGAGAGUGAUGUUCUCA [Ex Arginine A K4 11] | 0.431 | 0.374 | 0.598 | 0.572 | 0.446 |
| GGGAGUAGUGCGGCCGCCACUGAGAAAGAAGAAGAAUAUAGUGAUGUUAUAUAGGAAGGGAAGAACAGGACCGGGCAUUAGAUUU [SSTRyptB.Y] | 0.24 | 0.306 | 0.38 | 0.311 | 0.222 |
| CUUCGUAAGGGCCCAGUGAUGUUGGGCACUCGAGGACCGGUACGGCCGCCACUCGCUCCCUAAGUCGCGCGCGUGGGCCACCGCC [Rezariatra] | 0.128 | 0.111 | 0.116 | 0.102 | 0.139 |
| GCCUAGCAGGGAAGGAGCGGCAUAAGCAUAGAUAAUAUGCAGUUAGUGAUGUUAAUACUAUGCCAGGUAGGUCGCCCUGCUAGGC [KL-SSArg B7] | 0.752 | 0.457 | 0.688 | 0.623 | 0.537 |
| GAUUCAGUGAUGUUGGAAGGCGAGCGGGAUACCAGCCGAGACUCAGGCCCUUGGCAGCCCACAUAUCCCAGGUAGAUAGUCGAUC [Same State - Theophylline A (Freestyle 9)] | 0.185 | 0.118 | 0.17 | 0.165 | 0.16 |
| UGUCAUUGGUCGGCCGCCACUUCGUGUAGAGUGAUGUUUUGUAGGACGGAUCGAAAGAUCUGUCGAAGGACCGGGACCGAUGACU [FiskerMod 18 - Jieux - Same State - Tryptophan B] | 0.5 | 0.189 | 0.459 | 0.336 | 1.1 |
| GAGGUACAGGCGGCCGCCACUAGUGAUGUUAGUGAUAGAAGAUAUAGUAAAUAUCGGCAUGUAGAUAGGACCGGGCCUGGUGGAG [vvgtcmullin] | 0.291 | 0.234 | 0.288 | 0.327 | 0.287 |
| GGAGAGAACUGAAGGAGCGCCAAGAGAGAAGGAAAUAUAGUGAUGUUAUAUAAGAGAGAGAGGCAGGUAGGUCGCAGAGGGAGGA [#03 K4 Arginine B Exclusion] | 0.185 | 0.162 | 0.127 | 0.175 | 0.112 |
| AAUGUACAGGGAAGGAGCGUAGUCCAGUGAUGUUGGAAUUAAAUUCCUGCGAUGUUGGUUAUACAGGUAGGUCGCCCUAAAGUGC [KL-XARG-B22] | 0.367 | 0.351 | 0.436 | 0.497 | 0.344 |
| UUAUAUUUUAUAUUUAGUAGAGCUCUCGCUCGAGGACCGGUACGGCCGCCACUCGAGUGAUGUUCGAGUGGGAGAGCUCUACAUU [AK3.3 EXC Tryptophan A] | 0.108 | 0.0995 | 0.0949 | 0.1 | 0.181 |
| CCAUCGCUAUUCGAUACCAGUCAUCACAUCUUUGGUGUGAUAAAGGAGUGAUGUUCCCAAGACCCUUGGCAGCGAAUAGUGAUGG [Theophylline B K4 11] | 0.293 | 0.222 | 0.27 | 0.172 | 0.25 |
| AUUUAGACGAGUGAUGUUCGUGUUAUUACAGAGGAUAUGCGUGAUUGCAGAAGGCUGUAUUUAUAUAUGUUAUGUGGUUUUAAAA [whbob_Ex_FMNA__2th186] | 0.0797 | 0.102 | 0.0907 | 0.102 | 0.0699 |
| GUCUCGAGUGAUGUUCGGGUCGAUUGGGAAGGAGCGCCCGGAAGGGCAGGUAGGUCGCCCGGACCGCGCGGGCAACCGCGCGGCC [#2 Same State - Arginine A Attempt #11 (HarryS)] | 0.186 | 0.108 | 0.147 | 0.141 | 0.163 |
| UCUGGAGUAUAUGAUACCAGCAGUGAGAGACAGGAAGUAUAGUGAUGUUAUAUGAGAGAAUGCCCUUGGCAGCGUGUGCGGUGGG [SSTheophylB.R] | 0.0943 | 0.085 | 0.0711 | 0.106 | 0.0627 |
| UAAGCUCUGACGGCCGCCACUGCACGUGAUCCAGUAGUGGCUAACAUGAGUGAUGUUCAUGUAAGCAGGACCGGGUCAGAGCUAA [KL-XTryp-B13 #analogue] | 0.103 | 0.0879 | 0.0947 | 0.0817 | 0.12 |

| Sequence | apparent KD of K4 kissing-loop reporter (input ligand: FMN 200 uM) [µM] | apparent KD of K4 kissing-loop reporter (input ligand: arginine 13.2 mM) [µM] | apparent KD of K4 kissing-loop reporter (input ligand: none) [µM] | apparent KD of K4 kissing-loop reporter [1] [µM] | apparent KD of K4 kissing-loop reporter [2] [µM] |
| --- | --- | --- | --- | --- | --- |
| AGCGAUGUUUUCUCUAGGAGUGAUGUUUUUCGAGGACCGGUACGGCCGCCACUCGGACGACGAGUGUGGUAGUGGGCUGUUGACU [ffmullin] | 0.483 | 0.296 | 0.441 | 0.231 | 0.493 |
| CCGUAGCGAUCGGCCGCCACUCAAGAUCGCCAACUAUCACACGGUUCUCCCGAGUGAUGUUCUAGGAGGACCGGGAUUGUUGCUC [theeternabot_exclusion_KL_Trp_B_13] | 0.421 | 0.322 | 0.378 | 0.374 | 0.388 |
| UGUGUUGUUUUGAUGUUUGGUGUUGCUUGGCAGGAUAUCGUAGAGGCGAGAAGGGCUUGUGAGCGGUAUGAGUGAUGUUUGUAGG [zwwrmullin] | 0.485 | 0.282 | 0.455 | 0.416 | 0.336 |
| AUUCAUGAGUGAUGUUCAUCGGCAGGAGAUACCAGCGAGUUAACCCGCCCUUGGCAGCUCAAGUAUAGGGACUCUGGCAUCGCCU [theeternabot_exclusion_KL_Theo_A_18] | 0.406 | 0.374 | 0.547 | 0.405 | 0.369 |
| UACGUAGAGCGAGGAUAUCCUUCCCACGUCGAAGUACCGUGCUUGAUGGAGUGAUGUUCGAUCAGAGGAGAAGGUGCGAAACGUC [Flavin Switch Lower Fold Energy] | 0.725 | 0.618 | 0.724 | 0.622 | 0.524 |
| GUUACGCAUGGAAGGAGCGCUCUCCGGUUUAUUAACACAGUGAUGUUGUGAUUUUACCGAAAGCAGGUAGGUCGCCAUGUGUAAC [Ex Arginine B K4 12] | 0.356 | 0.32 | 0.416 | 0.381 | 0.372 |
| CAUACGCAUGGAGGAUAUGAGAUUACUCAUAUCAUUUAAUAUUCUCAGUGAUGUUGAGAUUUAAACUCAGAAGGCCAUGUGUAUG [Ex FMN B 12] | 0.262 | 0.331 | 0.358 | 0.356 | 0.38 |
| AGUGUUAGGUUAGAUACCAGCCGUUCGUGAAUAAUCCUCGAACCGCCAGUGAUGUUGGCAGGCCCUUGGCAGCUAACAGAACAGA [Maxeusla] | 0.243 | 0.216 | 0.207 | 0.17 | 0.223 |
| ACGUCCGGAUUGAUCGUGGGCAUGGUCGAUACCAGUAGUUUAAUCUACCCUUGGCAGCGACAUGAGUGAUGUUCAUGUGCGAUGA [KL-XTheo-A7 #analogue] | 0.185 | 0.164 | 0.173 | 0.35 | 0.185 |
| UACAUAUAGUUAUUUCUACAUUUAUUUAGUCAGGAUAUCGAUUAGACGAGAAGGGACAAUAUCAAGUGAUGUUUGAUAAUUCAAA [JR_ExcFMNA_Sub011] | 0.0757 | 0.111 | 0.0684 | 0.1 | 0.0532 |
| AACUCUCAGGCACGCGAGUGAUGUUCGCGCCGAGGACCGGUACGGCCGCCACUCGGGCCUGAGAGAGGUUAUCAAAGAUAGCCAA [whbob_SS_tryp_A] | 0.306 | 0.105 | 0.137 | 0.204 | 0.25 |
| GGUGUUGUUUGUGCUGUUUUCUUUGUUUCUCGAGGACCGGUACGGCCGCCACUCGAGUGAUGUUUGGGUAGUGAUGUUUGUUAGU [Bdazzled #1 Exc. TA] | 0.241 | 0.147 | 0.198 | 0.18 | 0.239 |
| UGUCAUGGAAACAUGAACGUUGAUGUUCGACGAGGACCGGUACGGCCGCCACUCGAGUAAUAGUCAGUGAUGUUGACUUGUCUAA [KL-SSTryp-A form1 sub3] | 0.0742 | 0.107 | 0.0918 | 0.131 | 0.0765 |
| GCCUAGCAGGGAAGGAGCGGCAUAGGCAUAGAUAAUAUGCAGUUAGUGAUGUUAACACUAUGCCAGGUAGGUCGCCCUGCUAGGC [KL-SSArg B8] | 0.201 | 0.0954 | 0.192 | 0.12 | 0.125 |
| CCGAUGGGUACAGGAUAUGCCAGUGAUGUUGGUUUAGAUGGACCCAUAAGGAGACACCAGACGGAGGCAGAAGGGUAGCAAGGGA [Isonanti] | 0.127 | 0.11 | 0.101 | 0.118 | 0.12 |
| UUUCGUUUCGUCUGACAUAAUUGGCUAGAAGGAGCGGUAAAAUUACCAGGUAGGUCGCUAGCCCAGUGAUGUUGGGACUAGCAUA [Onqudi] | 0.148 | 0.154 | 0.133 | 0.156 | 0.171 |
| GGGUCAGUCUGAAGGAGCGGCCAGACAGAGCAGUGAUGUUGCUCCUAAUUUAAAAGUGUCGGCCAGGUAGGUCGCAGAUUGGCUC [Dienralais] | 0.154 | 0.127 | 0.161 | 0.152 | 0.165 |
| UGUUUUUACUGAAGGAGCGGCAAUUGAUACGUAGAUAUAGUGAUGUUAUAUAAGAUAGAGAGCCAGGUAGGUCGCAGAGUUUUUC [ExArgB.Z] | 0.167 | 0.167 | 0.161 | 0.179 | 0.154 |
| GAUUUAGAGGCGGCCGCCACUAGUGAUGUUAGUGAUGUUUGAUACUGAAUAUAUCUGCGUUUAGAUAGGACCGGGCCAGAUGGAG [qzwqmullin] | 0.234 | 0.164 | 0.181 | 0.193 | 0.177 |
| GUAUAAGUGGGCGAUACCAGCUGUCGGUAGUGAUGUUAUUCAGCAGUCAGGAAGUUCGCUAGCCCUUGGCAGCGCCAGUGGUGAC [theeternabot_exclusion_KL_Theo_B_19] | 0.383 | 0.324 | 0.416 | 0.351 | 0.341 |
| AUUAUAAAGGCGGCCGCCACUAGUGAUGUUAGUGACUUAUGUAUUAUCAUAAGAAUAAAAUAAAAUAGGACCGGGCCAAAAUAUU [AstrosExTryB#3] | 0.527 | 0.384 | 0.452 | 0.448 | 0.483 |
